Legend:
Assay type in all cases: biochemical
[1] = acidolysis activity of lipases using MCT and EPA; conditions: for Conversion % (24 h): MCT (1 gr), EPA (0.6 gr), 500 mg enzyme preparation, 50° C., solvent-free; for efficiency of incorporation of EPA into MCT, in words: summary of Table 11
Protocol: (§1) The acidolysis activity of crude enzymes and enzymes adapted for synthetic reactions was assayed by adding an enzyme preparation (500 mg) into a 10 ml reaction solution containing MCT and a free fatty acid where the molar ratio between both substrates was 1:1. […] Samples (0.1 ml) were taken from the reaction mixture and mixed with 10 ml solvent comprised of acetone-dichloromethane at a ratio of 90:10. The samples were filtered through a Millipore filter (pore size 0.45 μm) and then injected to the HPLC.
(§2) The reaction progress was followed by analyzing the triglyceride composition in the reaction medium before and after the enzymatic reaction using an HPLC equipped with an ELSD (Evaporative light Scattering Detector). The HPLC was equipped with a LiChrosorb CH-18 Super (250×4 mm, 5 μm, MERCK). The HPLC running conditions were as follows: mobile phase A, Acetonitrile/Dichloromethane/Acetone (80/15/5); mobile phase B: […] (20/60/20). The flow rate was 1 ml/min and the gradient was 0 to 100% B for 30 min.
(§3) The substrate conversion was calculated as follows: Conversion %=100×(Sum of area of the 4 peaks representing the MCT at time zero)−([…])per Sum of area of the 4 peaks representing the MCT at time zero. The MCT conversion (%) was used as an indicative parameter for the efficiency of enzyme activity to obtain the desired product. Results
(§4) Tables 1-12 show the acidolysis activity of various lipases, which were screened for their ability to catalyze the reaction between MCT and free fatty acids in a solvent-free system according to the enzymatically catalyzed reaction presented in FIG. 1. All lipases were used in their crude form as supplied by the manufacturer (Sigma) or immobilized on an insoluble matrix. Immobilized lipases were activated before their use in the acidolysis reaction containing MCT and a long-chain fatty acid by pretreatment with a biphase system containing 50% triglyceride oil such as olive oil, soy oil and the like and 50% water. This pretreatment lead to the activation of the immobilized enzymes for synthetic applications.
(§5) A typical enzyme activation and immobilization procedure used in this example is as follows: 1 g of a crude lipase preparation was dissolved in a 1 L of phosphate buffer solution of an appropriate pH according to the recommendation of the enzyme's manufacturer. 10 g of support matrix (silica, celite, an ion-exchange resin such as DUOLITE® A56, DUOLITE® A7, DUOLITE® XAD761, or Amberlite™ XAD16) were added into the stirred enzyme solution. The slurry was shaken for 8 hours at a temperature of 10° C. Hundred ml of cold acetone was optionally added into the stirred slurry in order to enhance the enzyme immobilization on the matrix surface. The immobilized enzyme was filtered of from the mixture and then freeze-dried or used wet for the following step. One g of freeze-dried immobilized lipase (water content of less than 2 weight %) or wet immobilized lipase (water content of approx. 20%) was added into a biphase system comprised of 5 g olive oil and 2 g buffer solution of pH7 at room temperature. The mixture was stirred for 10 min. The immobilized lipases was filtered of from the mixture, washed with cold acetone, dried in a desiccator and then used for the acidolysis reaction between MCT and a fatty acyl donor.
(§6) Reaction conditions: MCT (1 gr), caproic acid (0.23 gr), and 500 mg enzyme preparation. The reaction mixture was shaken and thermostated at 50° C. for 16 h. […]

[2] = acidolysis activity of lipases using MCT and alpha-linolenic acid; conditions: MCT (1 gr), alpha-linolenic acid (0.55 gr), 500 mg enzyme preparation, 50° C., solvent-free
Protocol: (§7) The acidolysis activity of crude enzymes and enzymes adapted for synthetic reactions was assayed by adding an enzyme preparation (500 mg) into a 10 ml reaction solution containing MCT and a free fatty acid where the molar ratio between both substrates was 1:1. The reaction mixture was shaken for 16 hours at a temperature of 50° C. Samples (0.1 ml) were taken from the reaction mixture and mixed with 10 ml solvent comprised of acetone-dichloromethane at a ratio of 90:10. The samples were filtered through a Millipore filter (pore size 0.45 μm) and then injected to the HPLC.
(§8) The reaction progress was followed by analyzing the triglyceride composition in the reaction medium before and after the enzymatic reaction using an HPLC equipped with an ELSD (Evaporative light Scattering Detector). The HPLC was equipped with a LiChrosorb CH-18 Super (250×4 mm, 5 μm, MERCK). The HPLC running conditions were as follows: mobile phase A, Acetonitrile/Dichloromethane/Acetone (80/15/5); mobile phase B: Acetone/Dichloromethane/Acetone (20/60/20). The flow rate was 1 ml/min and the gradient was 0 to 100% B for 30 min.
(§9) The substrate conversion was calculated as follows: Conversion %=100×(Sum of area of the 4 peaks representing the MCT at time zero)−(Sum of area of the 4 peaks representing the MCT after 16 h reaction time)per Sum of area of the 4 peaks representing the MCT at time zero. The MCT conversion (%) was used as an indicative parameter for the efficiency of enzyme activity to obtain the desired product.
(§10) All lipases were used in their crude form as supplied by the manufacturer (Sigma) or immobilized on an insoluble matrix. Immobilized lipases were activated before their use in the acidolysis reaction containing MCT and a long-chain fatty acid by pretreatment with a biphase system containing 50% triglyceride oil such as olive oil, soy oil and the like and 50% water. This pretreatment lead to the activation of the immobilized enzymes for synthetic applications. […]

[3] = acidolysis activity of lipases using MCT and caproic acid; conditions: for Conversion % (24 h): MCT (1 gr), caproic acid (0.23 gr), 500 mg enzyme preparation, 50° C., solvent-free; for acidolysis activity in words, Caproic acid and MCT: summary of Table 1
Protocol: as §7, §8, §9

[4] = acidolysis activity of lipases using MCT and oleic acid; conditions: MCT (1 gr), oleic acid (0.56 gr), 500 mg enzyme preparation, 50° C., solvent-free
Protocol: as §7, §8, §9, §10

[5] = acidolysis activity of lipases using MCT and lauric acid; conditions: MCT (1 gr), lauric acid (0.4 gr), 500 mg enzyme preparation, 50° C., solvent-free
Protocol: as §7, §8, §9
Reaction conditions as described in Table 1, with one modification, namely lauric acid (0.4 gr) was used as the fatty acid.

[6] = acidolysis activity of lipases using MCT and palmitic acid; conditions: MCT (1 gr), palmitic acid (0.51 gr), 500 mg enzyme preparation, 50° C., solvent-free
Protocol: as §1, §2, §3
as §4, with “applications. […]” for “applications.”

[7] = acidolysis activity of lipases using MCT and DHA; conditions: MCT (1 gr), DHA (0.65 gr), 500 mg enzyme preparation, 50° C., solvent-free
Protocol: as §1, §2, §3
as §4, with “applications. […]” for “applications.”

[8] = acidolysis activity of lipases using MCT and linoleic acid; conditions: MCT (1 gr), linoleic acid (0.55 gr), 500 mg enzyme preparation, 50° C., solvent-free
Protocol: as §1, §2, §3
as §4, with “applications. […]” for “applications.”

[9] = acidolysis activity of lipases using MCT and stearic acid; conditions: MCT (1 gr), stearic acid (0.56 gr), 500 mg enzyme preparation, 50° C., solvent-free
Protocol: as §7, §8, §9
All lipases were used in their crude form as supplied by the manufacturer (Sigma) or immobilized on an insoluble matrix. Immobilized lipases were activated before their use in the acidolysis reaction containing MCT and a long-chain fatty acid by pretreatment with a biphase system containing 50% triglyceride oil such as olive oil, soy oil and the like and 50% water. […]

[10] = acidolysis activity of lipases using MCT and arachidonic acid; conditions: for Conversion % (24 h): MCT (1 gr), arachidonic acid (0.6 gr), 500 mg enzyme preparation, 50° C., solvent-free
Protocol: as §1, §2, §3, §4
A typical enzyme activation and immobilization procedure used in this example is as follows: 1 g of a crude lipase preparation was dissolved in a 1 L of phosphate buffer solution of an appropriate pH according to the recommendation of the enzyme's manufacturer. 10 g of support matrix (silica, celite, an ion-exchange resin such as DUOLITE® A56, DUOLITE® A7, DUOLITE® XAD761, or Amberlite™ XAD16) were added into the stirred enzyme solution. The slurry was shaken for 8 hours at a temperature of 10° C. Hundred ml of cold acetone was optionally added into the stirred slurry in order to enhance the enzyme immobilization on the matrix surface. […]

[11] = acidolysis activity of lipases using MCT and capric acid; conditions: MCT (1 gr), capric acid (0.34 gr), 500 mg enzyme preparation, 50° C., solvent-free
Protocol: as §1, §2, §3
as §4, with “applications. […]” for “applications.”

[12] = acidolysis activity of lipases using MCT and caprylic acid; conditions: for Conversion % (24 h): MCT (1 gr), caprylic acid (0.28 gr), 500 mg enzyme preparation, 50° C., solvent-free; for acidolysis activity in words, Caprylic acid and MCT: summary of Table 2
Protocol: as §1, §2, §3, §4, §5, §6

Molecule | Conversion % (24 h) [1] [%] | Conversion % (24 h) [2] [%] | Conversion % (24 h) [3] [%] | Conversion % (24 h) [4] [%] | Conversion % (24 h) [5] [%] | Conversion % [6] [%] | Conversion % (24 h) [7] [%] | Conversion % [8] [%] | Conversion % (24 h) [9] [%] | Conversion % (24 h) [10] [%] | Conversion % [11] [%] | Conversion % (24 h) [12] [%] | efficiency of incorporation of EPA into MCT, in words [1] | acidolysis activity in words, Caproic acid and MCT [3] | acidolysis activity in words, Caprylic acid and MCT [12] | efficiency of incorporation of ARA into MCT, in words ([10]; summary of Table 10)
Porcine pancreas lipase: lipase from porcine pancreas (Sigma), crude or immobilized (protein, UniProt P00591 1-450, looked up, crude or immobilized) Pancreatic triacylglycerol …: SEVCFPRLGCFSDDAPWAGIVQRPLKILPWSPKDVDTRFLLYTNQNQNNYQELVADPSTITNSNFRMDRKTRFIIHGFIDKGEEDWLSNICKNLFKVESVNCICVDWKGGSRTGYTQASQNIRIVGAEVAYFVEVLKSSLGYSPSNVHVIGHSLGSHAAGEAGRRTNGTIERITGLDPAEPCFQGTPELVRLDPSDAKFVDVIHTDAAPIIPNLGFGMSQTVGHLDFFPNGGKQMPGCQKNILSQIVDIDGIWEGTRDFVACNHLRSYKYYADSILNPDGFAGFPCDSYNVFTANKCFPCPSEGCPQMGHYADRFPGKTNGVSQVFYLNTGDASNFARWRYKVSVTLSGKKVTGHILVSLFGNEGNSRQYEIYKGTLQPDNTHSDEFDSDVEVGDLQKVKFIWYNNNVINPTLPRVGASKITVERNDGKVYDFCSQETVREEVLLTLNPC | 3 | 6 | 6 | 4 | 6 | 1 | 5 | 5 | 5 | 2 | 5 | 5 |  |  |  | 
Mucor miehei: lipase of Mucor miehei origin (Sigma), crude or immobilized (protein, UniProt P19515 95-363, looked up, crude or immobilized) Lipase: SIDGGIRAATSQEINELTYYTTLSANSYCRTVIPGATWDCIHCDATEDLKIIKTWSTLIYDTNAMVARGDSEKTIYIVFRGSSSIRNWIADLTFVPVSYPPVSGTKVHKGFLDSYGEVQNELVATVLDQFKQYPSYKVAVTGHSLGGATALLCALDLYQREEGLSSSNLFLYTQGQPRVGDPAFANYVVSTGIPYRRTVNERDIVPHLPPAAFGFLHAGEEYWITDNSPETVQVCTSDLETSDCSNSIVPFTSVLDHLSYFGINTGLCT | 25 | 31 | 35 | 40 | 38 | 41 | 27 | 41 | 42 | 3 | 39 | 42 | the most efficient enzymes | preferred sources | reasonable acidolysis activity | 
Rhizomucor miehei: lipase of Rhizomucor miehei origin (Sigma), crude or immobilized (protein, UniProt P19515 95-363, looked up, crude or immobilized) Lipase: SIDGGIRAATSQEINELTYYTTLSANSYCRTVIPGATWDCIHCDATEDLKIIKTWSTLIYDTNAMVARGDSEKTIYIVFRGSSSIRNWIADLTFVPVSYPPVSGTKVHKGFLDSYGEVQNELVATVLDQFKQYPSYKVAVTGHSLGGATALLCALDLYQREEGLSSSNLFLYTQGQPRVGDPAFANYVVSTGIPYRRTVNERDIVPHLPPAAFGFLHAGEEYWITDNSPETVQVCTSDLETSDCSNSIVPFTSVLDHLSYFGINTGLCT | 30 | 39 | 31 | 43 | 39 | 33 | 16 | 35 | 37 | 15 | 37 | 37 | the most efficient enzymes | preferred sources | reasonable acidolysis activity | among the most efficient enzymes

— US7919526B2, “Structured triglycerides and emulsions comprising same” (HTL High-Tech Lipids Ltd., priority 2005, dated 2011)
